Measurements from patent US20260098270.
Like-named read-outs stand apart in the source and are kept apart here.

Tests used:
[1] = molecular target: Influenza hemagglutinin H3N2-HA (Influenza A virus) (UniProt P03438); experiment: filter; conditions: dot blot
[2] = molecular target: Influenza hemagglutinin H5N1-HA (Influenza A virus) (UniProt Q8QPL1); experiment: filter
[3] = molecular target: Influenza hemagglutinin H3N2-HA (Influenza A virus) (UniProt P03438); experiment: BLI
[4] = molecular target: Influenza hemagglutinin H1N1-HA (Influenza A virus) (UniProt Q289M7)
[5] = molecular target: Troponin I (cardiac) (UniProt P19429); experiment: filter
[6] = tested on: Control lentivirus without spike; experiment: filter; conditions: three identical arms joined by Trebler, dot blot

Sequence “GGGTTTGGGTTGGGTTGGGTTTTTGGGTTTGGGTTGGGTTGGGAAAAATTTTTCTCTCGC [Trimeric (trident) RHA06]” has a Kd ([1]; three identical arms (SEQ 12) joined by Trebler, root TTTTT-Biotin, RT) of 0.09 nM, a Kd [2] of 0.13 nM and a Kd ([3]; three identical arms (SEQ 12) joined by Trebler, root TTTTT-Biotin) of 0.12 nM. The Kd [4] was 0.07 nM.
For “GGCAGCAGGAAGACAAGACATGGGTGGCGGGGACGGGGCGATGGGAACTTAGATTGCTAGTGGTTCTGTGGTTGCTCTGT [TnAp1]”, the Kd [5] was 125 nM.
For “GGGTTTGGGTTGGGTTGGGTTTTTGGGTTTGGGTTGGGTTGGGAAAAATTTTTCTCTCGC [Trident RHA06 + antisense 2:1]”, the Kd ([1]; Trebler-joined arms, antisense DNA of RHA06 hybridised at AS:aptamer 2:1, two arms blocked) was 7.9 nM.
With “GGCAGCAGGAAGACAAGACATGGGTGGCGGGGACGGGGCGATGGGAACTTAGATTGCTAGTGGTTCTGTGGTTGCTCTGTTTTTTCTCTCGC [Trimeric (trident) TnAp1]” the Kd ([5]; three identical arms joined by Trebler, root TTTTT-Biotin) was 4 nM.
In the case of “GGGTTTGGGTTGGGTTGGGTTTTTGGGTTTGGGTTGGGTTGGGAAAAA [RHA06]”, the Kd [3] is reported as 8 nM.
Sequence “GGGTTTGGGTTGGGTTGGGTTTTTGGGTTTGGGTTGGGTTGGGAAAAATTTTTCTCTCGC [Trident RHA06 + antisense 1:1]” has a Kd ([1]; Trebler-joined arms, antisense DNA of RHA06 hybridised at AS:aptamer 1:1, one arm blocked) of 0.31 nM.
For “TTACGTCAAGGTGTCACTCCGTAGGGTTTGGCTCCGGGCCTGGCGTCGGTCGTCTCTCGCGAAGCATCTCTTTGGCGTGTTTTTTTTTTTTTTT [TMSA52]”, the Kd [6] was over 0.5 nM.
